“And” between values parts separate entries of the source, which are not always exact repeats. Identical values can stand only once.
Tests used:
[1] = target: T1, hTregL1-his chymotryptic peptide 402-416 (human); experiment: affinity-MS: chymotryptic antigen peptides eluted from antibody-CNBr column, LC-MS
T1 sequence (peptide): HISSDSFLCDCQLKW

[2] = target: T2, hTregL1-his chymotryptic peptide 637-653 (human); experiment: as above
T2 sequence (peptide, N-glycan at 650(N)): SCTAQNSAGSISANATL

[3] = target: T3, hTregL1-his chymotryptic peptide 113-134 (human); experiment: as above
T3 sequence (peptide, N-glycan at 116(N)): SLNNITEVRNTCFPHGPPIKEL

[4] = target: T4, hTregL1-his chymotryptic peptide 624-636 (human); experiment: as above
T4 sequence (peptide): FITDVKIDDAGVY

[5] = target: T5, hTregL1-his chymotryptic peptide 447-471 (human); experiment: as above
T5 sequence (peptide): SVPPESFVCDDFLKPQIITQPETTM

[6] = target: T6, hTregL1-his chymotryptic peptide 427-440 (human); experiment: as above
T6 sequence (peptide): QAFVTATCAHPESL

[7] = target: T7, hTregL1-his chymotryptic peptide 728-744 (human); experiment: as above
T7 sequence (peptide): TCEMSNTLGTERAHSQL

[8] = target: T8, hTregL1-his chymotryptic peptide 472-492 (human); experiment: as above
T8 sequence (peptide): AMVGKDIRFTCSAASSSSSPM

[9] = target: T9, hTregL1-his chymotryptic peptide 585-598 (human); experiment: as above
T9 sequence (peptide): ECAATGHPNPQIAW

[10] = target: T10, hTregL1-his chymotryptic peptide 536-553 (human); experiment: as above
T10 sequence (peptide): GHEGRYQCVITNHFGSTY

[11] = target: T11, hTregL1-his chymotryptic peptide 270-280 (human); experiment: as above
T11 sequence (peptide): SFCQKLHELVL

[12] = target: T12, hTregL1-his chymotryptic peptide 529-535 (human); experiment: as above
T12 sequence (peptide): HLRQVTF

[13] = target: T13, hTregL1-his chymotryptic peptide 430-440 (human); experiment: as above
T13 sequence (peptide): VTATCAHPESL

[14] = target: T14, hTregL1-his chymotryptic peptide 430-446 (human); experiment: as above
T14 sequence (peptide): VTATCAHPESLKGQSIF

[15] = target: T15, hTregL1-his chymotryptic peptide 327-344 (human); experiment: as above
T15 sequence (peptide): DLDHNEISGTIEDTSGAF

[16] = target: T16, hTregL1-his tryptic peptide 498-531 (human); experiment: affinity-MS: tryptic antigen peptides eluted from antibody-CNBr column, LC-MS
T16 sequence (peptide): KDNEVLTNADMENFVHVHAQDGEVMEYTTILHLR

[17] = target: T17, hTregL1-his tryptic peptide 499-531 (human); experiment: as above
T17 sequence (peptide): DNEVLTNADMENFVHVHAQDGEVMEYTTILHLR

[18] = target: T18, hTregL1-his tryptic peptide 499-529 (human); experiment: as above
T18 sequence (peptide): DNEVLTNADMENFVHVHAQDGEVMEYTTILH

- MS Area [1]: 1.67e+07 and 7.24e+06
- MS Area [2]: 334000 and 207000
- MS Area [3]: 556000 and 544000
- MS Area [4]: 473000 and 399000
- MS Area [5]: 1.62e+06 and 1.32e+06
- MS Area [6]: 1.05e+06 and 554000
- MS Area [7]: 335000 and 736000
- MS Area [8]: 407000 and 325000
- MS Area [9]: 766000 and 374000
- MS Area [10]: 497000 and 295000
- MS Area [11]: 459000 and 335000
- MS Area [12]: 378000 and 312000
- MS Area [13]: 1.59e+07 and 1.18e+07
- MS Area [14]: 1e+06 and 705000
- MS Area [15]: 283000 and 298000
- MS Area [16]: 7.66e+06 and 4.64e+06 and 4.1e+06
- MS Area [17]: 1.9e+07 (2×) and 6.9e+06
- MS Area [18]: 1.21e+06 and 726000 and 442000
B1: GTC310-01-hlgG1 (antibody, human IgG1, kappa, V domains shown)
VH: EVQLLESGGGLVQPGGSLRLSCAASGFTFSNYAMSWVRQAPGKGLEWVSVISHGGGSTYYADSVKGRFTISRDNSKNTLYLQMNSLRAEDTAVYYCARVISNCHLGVCYYSNGMDVWGQGTLVTVSS
VL: QLVLTQPPSVSAAPGQRVSISCSGSSSNIGDNYVSWYQQVPGSAPKLLIYDNNKRPSGIPDRFSASKSGTSATLGITGLQTGDEADYYCATWDGSLSAGRVFGGGTKLTVLR
